Source: patent US20090087437A1 (Dana-Farber, published 2009)

Experiments:
Experiment in all cases: co-immunoprecipitation from cell lysates, western blot
cIAP1 = cIAP1 (UniProt Q13490 1-618)
Bcl-xL = molecular target: T1, Bcl-xL (UniProt Q07817 1-233)
T1 construct: also called multidomain antiapoptotic Bcl-xL protein

cIAP2 = molecular target: T2, cIAP2 (UniProt Q13489 1-604)
T2 construct: The list of antibodies in the same sentence prints 'cIAP', while the result names 'cIAP2'

XIAP = XIAP (UniProt P98170 1-497)
XIAP, sequence (P98170 whole entry): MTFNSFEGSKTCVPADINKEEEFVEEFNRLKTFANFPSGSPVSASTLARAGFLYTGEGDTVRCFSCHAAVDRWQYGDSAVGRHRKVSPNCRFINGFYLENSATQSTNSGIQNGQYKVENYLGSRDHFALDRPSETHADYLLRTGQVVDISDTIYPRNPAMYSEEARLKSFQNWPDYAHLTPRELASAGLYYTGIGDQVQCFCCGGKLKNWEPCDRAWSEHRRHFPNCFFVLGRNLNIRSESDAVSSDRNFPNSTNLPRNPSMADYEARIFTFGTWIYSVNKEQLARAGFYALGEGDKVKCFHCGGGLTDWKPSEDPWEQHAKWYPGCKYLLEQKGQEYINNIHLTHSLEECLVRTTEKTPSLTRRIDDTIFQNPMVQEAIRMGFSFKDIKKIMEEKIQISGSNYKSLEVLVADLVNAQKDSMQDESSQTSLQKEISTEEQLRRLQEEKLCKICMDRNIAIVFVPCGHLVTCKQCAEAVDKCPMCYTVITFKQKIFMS

Bcl-2 = molecular target: T3, Bcl-2 (UniProt P10415 1-239)
T3 construct: also called multidomain antiapoptotic Bcl-2 protein
T3 sequence (P10415 whole entry): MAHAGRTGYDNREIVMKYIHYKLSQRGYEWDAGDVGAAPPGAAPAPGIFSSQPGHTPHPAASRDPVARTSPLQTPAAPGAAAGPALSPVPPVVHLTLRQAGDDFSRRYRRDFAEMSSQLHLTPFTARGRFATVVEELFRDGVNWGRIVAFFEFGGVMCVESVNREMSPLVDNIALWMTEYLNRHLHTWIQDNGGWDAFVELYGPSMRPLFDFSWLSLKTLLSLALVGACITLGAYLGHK

Measured: binding result

T1 sequence (Q07817 whole entry): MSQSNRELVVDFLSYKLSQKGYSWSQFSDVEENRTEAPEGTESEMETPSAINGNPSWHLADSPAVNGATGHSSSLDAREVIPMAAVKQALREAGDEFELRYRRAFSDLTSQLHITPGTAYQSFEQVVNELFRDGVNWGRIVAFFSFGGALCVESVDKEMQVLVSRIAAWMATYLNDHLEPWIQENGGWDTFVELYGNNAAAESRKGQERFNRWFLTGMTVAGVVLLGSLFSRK
cIAP1, sequence (Q13490 whole entry): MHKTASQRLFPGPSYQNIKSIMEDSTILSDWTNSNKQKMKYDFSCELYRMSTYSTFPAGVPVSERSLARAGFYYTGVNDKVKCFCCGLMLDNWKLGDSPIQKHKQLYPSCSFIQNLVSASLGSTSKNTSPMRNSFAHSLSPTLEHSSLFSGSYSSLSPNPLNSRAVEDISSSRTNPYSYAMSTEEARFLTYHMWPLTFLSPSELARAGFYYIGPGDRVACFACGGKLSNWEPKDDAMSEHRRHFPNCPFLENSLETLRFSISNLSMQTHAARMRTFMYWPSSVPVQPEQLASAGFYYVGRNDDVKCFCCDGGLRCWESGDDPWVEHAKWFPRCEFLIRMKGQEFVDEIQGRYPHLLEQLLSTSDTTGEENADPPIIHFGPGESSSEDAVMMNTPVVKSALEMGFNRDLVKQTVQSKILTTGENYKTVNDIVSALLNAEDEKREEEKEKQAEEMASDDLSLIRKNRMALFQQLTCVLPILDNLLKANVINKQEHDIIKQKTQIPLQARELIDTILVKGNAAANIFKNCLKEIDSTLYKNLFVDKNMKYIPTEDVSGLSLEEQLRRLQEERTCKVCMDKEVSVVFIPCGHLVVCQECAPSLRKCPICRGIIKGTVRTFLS
T2 sequence (Q13489 whole entry): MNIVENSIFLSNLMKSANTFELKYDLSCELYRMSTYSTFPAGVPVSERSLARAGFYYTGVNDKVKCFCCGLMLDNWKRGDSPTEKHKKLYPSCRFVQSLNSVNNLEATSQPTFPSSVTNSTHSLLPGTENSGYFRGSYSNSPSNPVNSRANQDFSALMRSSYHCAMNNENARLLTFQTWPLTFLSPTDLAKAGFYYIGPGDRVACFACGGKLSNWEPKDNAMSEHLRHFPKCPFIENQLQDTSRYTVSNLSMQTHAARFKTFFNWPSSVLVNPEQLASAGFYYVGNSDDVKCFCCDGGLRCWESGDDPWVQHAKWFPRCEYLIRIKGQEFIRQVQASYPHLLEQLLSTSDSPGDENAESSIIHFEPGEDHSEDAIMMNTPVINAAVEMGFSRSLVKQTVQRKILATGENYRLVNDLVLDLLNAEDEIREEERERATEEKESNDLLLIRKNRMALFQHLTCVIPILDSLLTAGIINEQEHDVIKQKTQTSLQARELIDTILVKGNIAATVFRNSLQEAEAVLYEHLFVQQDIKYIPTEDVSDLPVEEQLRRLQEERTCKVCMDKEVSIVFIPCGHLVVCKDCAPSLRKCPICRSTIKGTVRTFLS

B1: MUC1 C-terminal transmembrane subunit (MUC1-C) (other, UniProt P15941 1098-1255, looked up)
chain: SVVVQLTLAFREGTINVHDVETQFNQYKTEAASRYNLTISDVSVSDVPFPFSAQSGAGVPGWGIALLVLVCVLVALAIVYLIALAVCQCRRKNYGQLDIFPARDTYHPMSEYPTYHTHGRYVPPSSTDRSPYEKVSAGNGGSSLSYTNPAVAATSANL
notes: Endogenous protein immunoprecipitated from MCF7 lysates with an anti-MUC1-C antibody
no binding: all assays above
